For one data set, the target named is E2F-1 (UniProt Q01094 Q01094:1-437). The experiment in a line: cell_activity; CAT stimulation by CMV-E2F in L6 muscle cells; tetramer on minimal GAPDH promoter. The conditions noted are these: tags: CMV-E2F expression plasmid.
Data set [1] has as its target T1, GST-RBAP-1 (E2F-1) (UniProt Q01094 Q01094:1-437). The experiment in a line: competition; mutant competitor vs labelled IRE-A. The conditions noted are these: tags: GST fusion, bacterial expression, glutathione Sepharose purified. As for the experimental part:
(§1) FIG. 4C is an electrophoretic mobility shift assay showing IRP-A and GST-RBAP-1 complexes with IRE-A DNA. GST-RBAP-1 (lanes 1–3) or nuclear proteins isolated from fasted-refed liver nuclear extract (lanes 4–6) were incubated with ^32P-labelled IRE-A DNA in the presence of: lanes 1 and 4, mutant IRE-A DNA (GC→TA); lanes 2 and 5, wild-type E2 DNA; and, lanes 3 and 6, mutant E2 DNA (GC→TA) as described above.
(§2) The EMSA procedure has been described previously (Nasrin, et al., Proc. Natl. Acad. Sci. USA, 87:5273–5277, 1990). Nuclear extract or GST-RBAP-1 was incubated with 0.25–0.5 ng of ^32P-labelled oligo in 20 μl of binding buffer containing 10 mM HEPES (pH 7.9), 0.1 mM EDTA, 10 mM MgCl_2, 5 mM KCl, 150 mM NaCl, 25 mM DTT and 250 ng of poly(dI)poly(dC). The reaction products were separated at 4° C. in a 4.5% polyacrylamide gel run in 50 mM Tris-HCL (pH 8.5), 380 mM glycine and 2 mM EDTA. The gel was dried and exposed to film. The sequences of the oligonucleotides used to characterize IRE-A-like and E2F-like DNA binding activities are shown. Cognate E2F sites include E2F wild-type, 5'-[…]-[…]-3' (SEQ ID NO: 4); E2F mutant, 5'-ATT-[…]-3' (SEQ ID NO: 5); DRTF wild-type, 5'-[…]-3' (SEQ ID NO: 6). The GAPDH IRE-A used for gel shifts included nucleotides −487 to −408 of the promoter (Nasrin, et al., Proc. Natl. Acad. Sci. USA, 87:5273–5277, 1990). […]

Data set [2] concerns the target T1, GST-RBAP-1 (E2F-1). The experiment in a line: competition; competitor vs labelled IRE-A. The conditions noted are these: tags: GST fusion, bacterial expression, glutathione Sepharose purified; label: 32P when used as probe. How it is done:
as §1, §2

T1 sequence (Q01094 whole entry, the tested form may be a part, one chain of several): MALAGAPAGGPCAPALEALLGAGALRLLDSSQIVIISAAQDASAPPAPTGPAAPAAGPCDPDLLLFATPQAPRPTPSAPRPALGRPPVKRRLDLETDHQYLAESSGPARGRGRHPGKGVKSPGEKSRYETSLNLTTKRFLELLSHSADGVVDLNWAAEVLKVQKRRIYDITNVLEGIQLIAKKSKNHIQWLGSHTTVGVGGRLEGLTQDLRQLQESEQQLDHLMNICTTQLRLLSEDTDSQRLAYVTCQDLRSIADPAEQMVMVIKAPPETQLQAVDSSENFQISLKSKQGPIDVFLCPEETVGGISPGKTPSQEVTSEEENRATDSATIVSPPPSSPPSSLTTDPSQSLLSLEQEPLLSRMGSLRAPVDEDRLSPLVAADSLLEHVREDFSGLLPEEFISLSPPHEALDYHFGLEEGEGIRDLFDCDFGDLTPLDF
Sequence of E2F-1 (Q01094 whole entry, the tested form may be a part, one chain of several): as above

B1: IRE-A minimal motif tetramer-CAT (dsDNA)
DNA 1: AAGTTCCCCAACTTTCCCGCCTCTCAGCCTTTGAAAG
DNA 2: CTTTCAAAGGCTGAGAGGCGGGAAAGTTGGGGAACTT
For B1, the activity in the data set with E2F-1 came out at 7 fold.

B2: E2 mutant (GC to TA) (dsDNA)
DNA 1: ATTTAAGTTTCGATCCCTTTCTCAA
DNA 2: TTGAGAAAGGGATCGAAACTTAAAT
On to B2, for which the binding result in the data set with GST-RBAP-1 (E2F-1) [1] is recorded as “no binding”.

B3: E2 (cognate E2F site) wild-type (dsDNA)
DNA 1: ATTTAAGTTTCGCGCCCTTTCTCAA
DNA 2: TTGAGAAAGGGCGCGAAACTTAAAT
In the case of B3, the binding result with GST-RBAP-1 (E2F-1) [2] is listed as “binds”.

The values are drawn from US5496831, “Inhibition of insulin-induced adiposis” (The General Hospital Corporation).
